Source: patent US20200123260A1 (Pfizer, published 2020)
“And” between values parts separate entries of the source, which are not always exact repeats. Equal entries are not always repeated.

Assays:
[1] = biological target: T1, Recombinant human CCL20 (Peprotech) (human, UniProt P78556 27-96); assay: SPR stoichiometry, Ab captured on protein A, cytokine at saturation, N = 1
[2] = biological target: T2, Recombinant human IL13 (R&D Systems) (human, UniProt P35225 35-146, limits assumed); assay: SPR stoichiometry, antibody captured on protein A
[3] = biological target: T2, Recombinant human IL13 (R&D Systems); assay: SPR stoichiometry, Ab captured on protein A, cytokine at saturation, N = 2
[4] = biological target: T1, Recombinant human CCL20 (Peprotech); assay: as above
rhTrkB-ECD-His = biological target: T3, rhTrkB-ECD-His (human, UniProt Q16620 32-430); assay: competition ELISA: plate coated with rhTrkB-ECD-His; biotinylated humanized TOA-1 at 25 ng/ml mixed with unlabeled huTOA-1; streptavidin-HRP
T3 construct: extracellular domain

[5] = biological target: hTrkC in the SHC1 recruitment assay (U2OS, Discoverx Pathhunter) (human, UniProt Q16288 32-839); assay: cell-based or functional assay
[6] = biological target: hTrkA in the SHC1 recruitment assay (U2OS, Discoverx Pathhunter) (human, UniProt P04629 33-796); assay: cell-based or functional assay
[7] = biological target: hTrkB-a isoform fused to a small peptide epitope, in U2OS cells (Discoverx Pathhunter) (human, UniProt Q16620 32-822); assay: cell-based or functional assay
[8] = biological target: T4, rhTrkB-ECD (R&D #397-TR/CF) (human, UniProt Q16620 32-430); assay: SPR (Biacore), TrkB ectodomain immobilised on CM5, antibody injected
T4 construct: extracellular domain; Bought protein; also called human TrkB-extracellular domain protein; human TrkB ectodomain protein

[9] = biological target: T5, Mouse TrkB ectodomain protein (R&D #1494-TB/CF) (mouse, UniProt P15209 32-429); assay: as above
T5 construct: extracellular domain; Bought protein; also called mouse TrkB-extracellular domain protein

[10] = biological target: T6, TrkB, Cat (Felis domesticus) on 293 cells (cat (Felis domesticus)); assay: cell-based ELISA on transiently transfected HEK293 cells
T6 construct: Whole entry with signal peptide; also called cat TrkB

[11] = biological target: T7, mouse TrkB (nm_001025074) on HEK293 cells (mouse, UniProt P15209 32-821); assay: as above
T7 construct: whole, on cells; also called rmuTrkB-CRE

[12] = biological target: T4, rhTrkB-ECD (R&D #397-TR/CF); assay: competition ELISA: plate coated with rhTrkB-ECD; biotinylated chimeric TOA-1 at 25 ng/ml mixed with the unlabeled antibody; streptavidin-HRP
[13] = biological target: T8, human TrkB (open reading frame from nm_006180) on HEK293 cells (human, UniProt Q16620 32-822); assay: cell-based or functional assay
Chimeric TrkB (d4TrkA) = biological target: T9, Chimeric TrkB (d4TrkA) (human); assay: cell-based ELISA on transfected 293 cells
T9 construct: TrkB residues 190-282 replaced by TrkA residues 187-281

[14] = biological target: T8, human TrkB (open reading frame from …); assay: cell-based or functional assay; remark: listed apart in the source
[15] = biological target: T10, human p75NTR (open reading frame from NM_002507) on HEK293 cells (human, UniProt P08138 29-427); assay: FACS on transiently transfected HEK293 cells, FITC-labeled mouse anti-human IgG
T10 construct: whole, on cells; also called hu p75NTR
T10 sequence (looked up): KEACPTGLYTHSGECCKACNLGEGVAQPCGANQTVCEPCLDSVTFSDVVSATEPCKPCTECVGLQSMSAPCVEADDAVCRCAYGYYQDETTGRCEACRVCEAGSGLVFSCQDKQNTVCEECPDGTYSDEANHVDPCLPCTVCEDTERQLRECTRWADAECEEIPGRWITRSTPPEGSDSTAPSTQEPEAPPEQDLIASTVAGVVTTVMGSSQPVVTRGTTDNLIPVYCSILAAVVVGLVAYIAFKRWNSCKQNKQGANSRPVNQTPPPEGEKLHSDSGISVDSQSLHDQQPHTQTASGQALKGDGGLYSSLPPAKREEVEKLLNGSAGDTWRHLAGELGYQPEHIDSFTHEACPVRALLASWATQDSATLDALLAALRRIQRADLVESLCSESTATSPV

[16] = biological target: T6, TrkB, Cat (Felis domesticus) on 293 …; assay: cell-based ELISA on transfected 293 cells
[17] = biological target: T7, mouse TrkB (nm_001025074) on HEK293 …; assay: cell-based ELISA on transfected 293 cells
[18] = biological target: T11, recombinant human TrkC-Fc (rhTrkC-ECD, R&D system, 373-TC/TF) (human, UniProt Q16288 32-429); assay: direct binding ELISA: plate coated with rhTrkC-ECD (Fc chimera) at 5 ug/ml, biotinylated antibody, streptavidin-HRP
T11 construct: extracellular domain; Bought protein; not shown: Fc part, not described

T1 sequence (P78556 27-96 limits assumed): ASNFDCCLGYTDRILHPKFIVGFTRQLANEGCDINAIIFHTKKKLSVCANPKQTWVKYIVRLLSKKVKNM
T8 sequence (Q16620 32-822): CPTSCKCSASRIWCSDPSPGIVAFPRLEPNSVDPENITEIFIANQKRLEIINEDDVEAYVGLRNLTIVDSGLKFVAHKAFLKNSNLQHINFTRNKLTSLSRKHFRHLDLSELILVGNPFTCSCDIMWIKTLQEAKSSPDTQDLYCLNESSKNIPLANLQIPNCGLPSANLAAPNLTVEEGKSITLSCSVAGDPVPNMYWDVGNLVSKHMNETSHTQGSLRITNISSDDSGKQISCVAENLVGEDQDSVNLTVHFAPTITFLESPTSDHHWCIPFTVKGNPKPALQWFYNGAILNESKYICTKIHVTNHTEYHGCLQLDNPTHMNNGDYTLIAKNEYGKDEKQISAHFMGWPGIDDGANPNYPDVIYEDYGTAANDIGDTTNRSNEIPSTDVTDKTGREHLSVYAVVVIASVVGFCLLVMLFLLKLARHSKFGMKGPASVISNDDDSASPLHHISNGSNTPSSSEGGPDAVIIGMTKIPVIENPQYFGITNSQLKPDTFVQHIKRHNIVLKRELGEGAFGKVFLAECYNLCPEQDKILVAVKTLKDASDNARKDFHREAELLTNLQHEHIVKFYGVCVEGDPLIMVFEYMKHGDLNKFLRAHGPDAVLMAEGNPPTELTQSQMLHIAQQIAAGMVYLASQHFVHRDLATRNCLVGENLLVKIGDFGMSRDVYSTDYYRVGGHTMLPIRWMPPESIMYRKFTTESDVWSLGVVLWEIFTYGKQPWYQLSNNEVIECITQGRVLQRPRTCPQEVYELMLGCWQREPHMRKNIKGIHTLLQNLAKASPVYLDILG
T2 sequence (P35225 35-146 limits assumed): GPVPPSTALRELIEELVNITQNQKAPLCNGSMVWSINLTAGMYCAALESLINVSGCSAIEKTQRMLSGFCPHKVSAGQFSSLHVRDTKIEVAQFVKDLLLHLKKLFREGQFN
T7 sequence (P15209 32-821): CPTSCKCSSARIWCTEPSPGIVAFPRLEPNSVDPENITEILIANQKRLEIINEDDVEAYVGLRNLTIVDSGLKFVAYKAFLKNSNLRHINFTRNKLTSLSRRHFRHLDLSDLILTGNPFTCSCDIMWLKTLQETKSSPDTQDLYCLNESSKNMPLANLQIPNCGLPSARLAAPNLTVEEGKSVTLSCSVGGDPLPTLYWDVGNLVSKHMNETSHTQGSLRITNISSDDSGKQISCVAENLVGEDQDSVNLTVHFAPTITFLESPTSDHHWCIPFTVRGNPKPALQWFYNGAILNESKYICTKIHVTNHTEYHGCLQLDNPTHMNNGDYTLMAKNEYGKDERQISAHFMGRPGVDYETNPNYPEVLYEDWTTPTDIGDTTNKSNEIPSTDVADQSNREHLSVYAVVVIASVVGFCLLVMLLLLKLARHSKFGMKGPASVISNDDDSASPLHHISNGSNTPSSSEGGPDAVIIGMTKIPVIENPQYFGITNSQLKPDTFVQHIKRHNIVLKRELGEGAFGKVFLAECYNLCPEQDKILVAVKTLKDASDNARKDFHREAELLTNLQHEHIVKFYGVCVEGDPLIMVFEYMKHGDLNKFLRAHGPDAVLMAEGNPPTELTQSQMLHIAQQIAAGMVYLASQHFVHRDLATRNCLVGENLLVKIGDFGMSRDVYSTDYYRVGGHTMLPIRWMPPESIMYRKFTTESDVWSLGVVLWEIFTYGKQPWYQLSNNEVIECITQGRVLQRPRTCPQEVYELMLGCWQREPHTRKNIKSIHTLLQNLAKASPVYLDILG
T4 sequence (Q16620 32-430): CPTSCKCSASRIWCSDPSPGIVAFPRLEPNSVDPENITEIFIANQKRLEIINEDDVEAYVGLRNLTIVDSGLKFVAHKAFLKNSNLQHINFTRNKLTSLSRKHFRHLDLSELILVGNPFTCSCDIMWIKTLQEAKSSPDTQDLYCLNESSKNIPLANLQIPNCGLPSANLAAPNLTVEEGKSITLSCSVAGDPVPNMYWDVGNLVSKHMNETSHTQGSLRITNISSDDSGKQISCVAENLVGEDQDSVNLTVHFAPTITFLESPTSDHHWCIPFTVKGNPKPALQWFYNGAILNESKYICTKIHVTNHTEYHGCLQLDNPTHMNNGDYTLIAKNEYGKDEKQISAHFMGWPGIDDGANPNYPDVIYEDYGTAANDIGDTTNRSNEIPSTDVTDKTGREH
Chain of hTrkB-a isoform fused to a small peptide epitope, in U2OS cells (Discoverx Pathhunter) (Q16620 32-430): as above
T6 sequence (chain, as listed by the source limits assumed): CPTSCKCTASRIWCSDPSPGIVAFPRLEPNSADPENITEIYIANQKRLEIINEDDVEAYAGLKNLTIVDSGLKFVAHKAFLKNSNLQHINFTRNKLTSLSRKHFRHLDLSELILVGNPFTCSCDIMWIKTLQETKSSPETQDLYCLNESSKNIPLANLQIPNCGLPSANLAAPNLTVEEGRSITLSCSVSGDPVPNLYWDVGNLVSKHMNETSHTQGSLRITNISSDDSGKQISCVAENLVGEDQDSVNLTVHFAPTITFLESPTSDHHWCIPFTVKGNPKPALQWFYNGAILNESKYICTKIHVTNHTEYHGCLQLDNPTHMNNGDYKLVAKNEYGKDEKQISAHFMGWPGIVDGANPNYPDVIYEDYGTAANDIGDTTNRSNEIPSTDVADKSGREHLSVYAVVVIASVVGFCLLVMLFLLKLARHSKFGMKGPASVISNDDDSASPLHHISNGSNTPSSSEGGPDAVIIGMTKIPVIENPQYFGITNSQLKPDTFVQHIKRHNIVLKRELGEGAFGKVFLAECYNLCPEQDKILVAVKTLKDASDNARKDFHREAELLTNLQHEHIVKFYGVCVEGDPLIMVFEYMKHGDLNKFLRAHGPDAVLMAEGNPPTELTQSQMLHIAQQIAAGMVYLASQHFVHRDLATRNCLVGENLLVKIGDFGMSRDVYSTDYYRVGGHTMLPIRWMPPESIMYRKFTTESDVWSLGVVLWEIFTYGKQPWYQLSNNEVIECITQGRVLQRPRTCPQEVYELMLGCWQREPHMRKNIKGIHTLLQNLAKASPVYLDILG
Chain of hTrkC in the SHC1 recruitment assay (U2OS, Discoverx Pathhunter) (Q16288 32-839): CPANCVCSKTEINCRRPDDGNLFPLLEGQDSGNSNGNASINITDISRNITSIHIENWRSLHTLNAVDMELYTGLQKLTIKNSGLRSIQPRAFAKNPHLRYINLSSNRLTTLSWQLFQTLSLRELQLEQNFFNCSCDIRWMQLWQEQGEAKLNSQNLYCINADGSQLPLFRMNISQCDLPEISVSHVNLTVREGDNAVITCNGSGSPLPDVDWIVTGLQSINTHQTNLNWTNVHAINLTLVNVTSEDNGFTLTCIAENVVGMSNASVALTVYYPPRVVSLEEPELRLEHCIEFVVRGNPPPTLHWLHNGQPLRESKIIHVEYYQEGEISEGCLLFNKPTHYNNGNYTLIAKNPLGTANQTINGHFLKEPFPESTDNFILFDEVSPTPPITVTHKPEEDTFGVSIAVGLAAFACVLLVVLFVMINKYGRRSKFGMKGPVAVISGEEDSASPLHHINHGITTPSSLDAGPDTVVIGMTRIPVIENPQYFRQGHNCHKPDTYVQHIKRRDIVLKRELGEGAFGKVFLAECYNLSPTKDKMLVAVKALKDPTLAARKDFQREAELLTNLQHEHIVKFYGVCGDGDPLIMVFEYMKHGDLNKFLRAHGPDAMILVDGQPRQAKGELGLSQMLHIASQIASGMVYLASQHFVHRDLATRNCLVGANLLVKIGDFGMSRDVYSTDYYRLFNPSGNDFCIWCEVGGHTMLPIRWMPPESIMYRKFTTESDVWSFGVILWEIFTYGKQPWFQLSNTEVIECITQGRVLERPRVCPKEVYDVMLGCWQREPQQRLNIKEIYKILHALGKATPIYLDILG
T5 sequence (P15209 32-429): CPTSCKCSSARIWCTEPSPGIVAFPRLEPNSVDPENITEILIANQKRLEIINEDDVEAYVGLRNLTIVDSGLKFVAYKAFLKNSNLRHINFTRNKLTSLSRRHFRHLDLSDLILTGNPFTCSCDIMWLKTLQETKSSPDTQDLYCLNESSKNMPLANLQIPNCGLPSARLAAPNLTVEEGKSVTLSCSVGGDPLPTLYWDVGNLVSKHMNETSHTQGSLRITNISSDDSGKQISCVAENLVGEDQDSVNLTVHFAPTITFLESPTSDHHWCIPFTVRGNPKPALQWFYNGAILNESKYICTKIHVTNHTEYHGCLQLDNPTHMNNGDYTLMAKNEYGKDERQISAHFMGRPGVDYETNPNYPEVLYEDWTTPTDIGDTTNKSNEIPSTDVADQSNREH
T9 sequence (chain, as listed by the source mutant limits assumed): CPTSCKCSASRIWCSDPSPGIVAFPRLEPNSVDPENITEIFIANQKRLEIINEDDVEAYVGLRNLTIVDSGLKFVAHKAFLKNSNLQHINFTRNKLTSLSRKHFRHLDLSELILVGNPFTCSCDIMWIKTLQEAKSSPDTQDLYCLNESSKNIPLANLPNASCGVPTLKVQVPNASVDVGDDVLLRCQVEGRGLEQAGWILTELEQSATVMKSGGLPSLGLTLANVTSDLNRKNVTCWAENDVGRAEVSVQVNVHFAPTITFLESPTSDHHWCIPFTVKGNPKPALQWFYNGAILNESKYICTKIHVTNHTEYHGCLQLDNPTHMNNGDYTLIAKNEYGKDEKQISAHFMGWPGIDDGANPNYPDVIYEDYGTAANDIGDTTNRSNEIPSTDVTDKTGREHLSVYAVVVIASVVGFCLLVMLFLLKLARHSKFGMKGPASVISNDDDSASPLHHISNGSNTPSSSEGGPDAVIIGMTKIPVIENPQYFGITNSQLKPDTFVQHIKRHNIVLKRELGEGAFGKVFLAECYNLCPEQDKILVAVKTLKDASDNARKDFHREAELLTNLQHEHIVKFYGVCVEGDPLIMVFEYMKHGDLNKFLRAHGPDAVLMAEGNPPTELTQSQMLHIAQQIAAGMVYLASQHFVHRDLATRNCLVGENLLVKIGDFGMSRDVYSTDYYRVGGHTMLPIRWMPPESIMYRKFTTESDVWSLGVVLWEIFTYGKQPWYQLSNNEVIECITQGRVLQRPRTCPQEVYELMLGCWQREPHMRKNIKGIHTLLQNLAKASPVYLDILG

B1: C5 (anti-CCL20 antibody, clone C5, parental) (antibody, human IgG1, kappa, V domains shown)
VH: QVQLVQSGAEVKKPGSSVKVSCKASGGTFSSYAISWVRQAPGQGLEWMGGIIPIFGTANYAQKFQGRVTITADESTSTAYMELSSLRSEDTAVYYCAGGSITGTTPFDYWGRGTLVTVSS
VL: AIQLTQSPSSLTASVGDRVTITCRASQFASNDVGWYQQKPGKAPKLLIYAASSLQSGVPPRFSGSGSGTEFTFTISSLQPEDFATYYCLQDYTYPLTFGQGTKVEIKR
notes: also called anti-CCL20-clone5; CCL20-Clone 5
Binding Ratio [1]: 2
Binding Ratio (measured, before normalisation) [1]: 2.15
binding result [2]: no binding
Binding Ratio [3]: 0
Binding Ratio [4]: 2
Binding Ratio (measured, before normalisation) [4]: 2.18

B2: TAM-163 (huTOA-1 v1.0/1.4) (antibody, human IgG1, kappa, V domains shown)
VH: EVQLVESGGGLVQPGGSLRLSCAASGYSFTAYFMNWVRQAPGKGLEWVARINPNNGDTFYTQKFKGRFTISRDNAKNSLYLQMNSLRAEDTAVYYCARRDYFGAMDYWGQGTLVTVSS
VL: DIQMTQSPSSLSASVGDRVTITCRASQTISNNLHWYQQKPGKAPKLLIKSASLAISGVPSRFSGSGSGTDFTLTISSLQPEDFATYYCQQSNSWPNTFGGGTKVEIKR
notes: IgG1 with effector-function ablating CH2; Also used biotinylated; also called humanized TOA-1; Humanized TOA1
IC50 (read off the curve) (rhTrkB-ECD-His): ~8 nM
Fold-increase, SHC1 recruitment assay [5]: 1 fold
Fold-increase, SHC1 recruitment assay [6]: 1.1 fold
EC50, SHC1 recruitment assay [7]: 0.67 nM
Fold-increase, SHC1 recruitment assay [7]: 5.2 fold
Kd [8]: 9.4 nM
Kd [9]: 11.4 nM
EC50 [10]: 0.39 nM
EC50 [11]: 0.34 nM
IC50 (read off the curve) [12]: ~6 nM
EC50, hTrkB Cre-luc reporter assay, lot L40042-192 [13]: 0.24 nM and 0.39 nM and 0.61 nM
EC50, hTrkB Cre-luc reporter assay, lot L42385-008 [13]: 0.25 nM and 0.37 nM
EC50, hTrkB Cre-luc reporter assay, lot L42385-024 [13]: 0.13 nM
EC50, hTrkB Cre-luc reporter assay, lot L42385-152 [13]: 0.1 nM
Fold-increase, hTrkB Cre-luc reporter assay, lot L42385-024 [13]: 5.3 fold
Fold-increase, hTrkB Cre-luc reporter assay, lot L42385-152 [13]: 4.5 fold
binding result (Chimeric TrkB (d4TrkA)): binds
Cre-luciferase reporter, maximum fold-increase (FIG. 38) [14]: 5 fold
binding result [15]: no binding
EC50 [16]: 0.52 nM
EC50 [17]: 0.33 nM
binding result [18]: no binding (tested: about 6.7 nM)
